Key:
Assay in all cases: iTopia iScore
[1] = molecular target: T1, MHC class I molecule A*0301 (biotin (bound to streptavidin-coated plate))
T1 construct: also called A3; HLA-A3
Method: (§1) The 9 mers were tested for Peptide Binding, Off Rate and Affinity using iTopia Epitope Discovery System in accordance with the manufacturer's instructions. Briefly, 96 well microtitre plates coated with MHC molecules representing different MHC alleles are used to identify candidate peptides. […] Determinations are performed in duplicate using an ELISA plate reader and included allele specific positive controls.
(§2) Finally, multiparametric analysis is performed on the results from these assays and an iScore is generated. The iScore represents a measure of the overall quality of peptide-MHC binding, enabling candidate peptides to be ranked in order of binding quality and allowing rational prioritisation of peptides for functional cellular follow-up studies.

[2] = molecular target: T2, MHC class I molecule A*0201 (biotin (bound to streptavidin-coated plate))
T2 construct: also called A2; HLA-A2
Method: as §1, §2

[3] = molecular target: T3, MHC class I molecule B*0702 (biotin (bound to streptavidin-coated plate))
T3 construct: also called B7; HLA-B7
Method: as §1, §2

[4] = molecular target: T4, MHC class I molecule A*0101 (biotin (bound to streptavidin-coated plate))
T4 construct: also called A1; HLA-A1
Method: as §1, §2

B1: 5T4 9-mer peptide 64 GSRLDEVRA (peptide)
peptide: GSRLDEVRA
- iScore [1]: 0
- iScore [2]: 0.13
- iScore [3]: 0
- iScore [4]: 0

B2: 5T4 9-mer peptide 82 SGSNASVSA (peptide)
peptide: SGSNASVSA
- iScore [1]: 0
- iScore [2]: 0
- iScore [3]: 0
- iScore [4]: 0

B3: 5T4 9-mer peptide 51 NQLAVLPAG (peptide)
peptide: NQLAVLPAG
- iScore [1]: 0
- iScore [2]: 0.22
- iScore [3]: 0
- iScore [4]: 0

B4: 5T4 9-mer peptide 80 PFAFSGSNA (peptide)
peptide: PFAFSGSNA
- iScore [1]: 0
- iScore [2]: 0
- iScore [3]: 0
- iScore [4]: 0

B5: 5T4 9-mer peptide 54 PAGAFARRP (peptide)
peptide: PAGAFARRP
- iScore [1]: 0
- iScore [2]: 0
- iScore [3]: 0
- iScore [4]: 0

B6: 5T4 9-mer peptide 83 SNASVSAPS (peptide)
peptide: SNASVSAPS
- iScore [1]: 0
- iScore [2]: 0.154
- iScore [3]: 0
- iScore [4]: 0

B7: 5T4 9-mer peptide 49 FLTGNQLAV (peptide)
peptide: FLTGNQLAV
- iScore [1]: 0
- iScore [2]: 0.791
- iScore [3]: 0
- iScore [4]: 0

B8: 5T4 9-mer peptide 63 LSGSRLDEV (peptide)
peptide: LSGSRLDEV
- iScore [1]: 0
- iScore [2]: 0.075
- iScore [3]: 0.107
- iScore [4]: 0

B9: 5T4 9-mer peptide 69 AFEHLPSLR (peptide)
peptide: AFEHLPSLR
- iScore [1]: 0
- iScore [2]: 0
- iScore [3]: 0
- iScore [4]: 0

B10: 5T4 9-mer peptide 72 SLRQLDLSH (peptide)
peptide: SLRQLDLSH
- iScore [1]: 0
- iScore [2]: 0
- iScore [3]: 0
- iScore [4]: 0

B11: 5T4 9-mer peptide 56 FARRPPLAE (peptide)
peptide: FARRPPLAE
- iScore [1]: 0
- iScore [2]: 0.042
- iScore [3]: 0
- iScore [4]: 0

B12: 5T4 9-mer peptide 84 ASVSAPSPL (peptide)
peptide: ASVSAPSPL
- iScore [1]: 0
- iScore [2]: 0.059
- iScore [3]: 0.017
- iScore [4]: 0

B13: 5T4 9-mer peptide 71 LPSLRQLDL (peptide)
peptide: LPSLRQLDL
- iScore [1]: 0
- iScore [2]: 0.098
- iScore [3]: 0.454
- iScore [4]: 0

B14: 5T4 9-mer peptide 117 LPSLRHLDL (peptide)
peptide: LPSLRHLDL
- iScore [1]: 0
- iScore [2]: 0.028
- iScore [3]: 0.445
- iScore [4]: 0

B15: 5T4 9-mer peptide 76 HNPLADLSP (peptide)
peptide: HNPLADLSP
- iScore [1]: 0
- iScore [2]: 0
- iScore [3]: 0
- iScore [4]: 0

B16: 5T4 9-mer peptide 61 AALNLSGSR (peptide)
peptide: AALNLSGSR
- iScore [1]: 0
- iScore [2]: 0
- iScore [3]: 0
- iScore [4]: 0

B17: 5T4 9-mer peptide 65 RLDEVRAGA (peptide)
peptide: RLDEVRAGA
- iScore [1]: 0.057
- iScore [2]: 0.422
- iScore [3]: 0.032
- iScore [4]: 0

B18: 5T4 9-mer peptide 81 AFSGSNASV (peptide)
peptide: AFSGSNASV
- iScore [1]: 0
- iScore [2]: 0.116
- iScore [3]: 0
- iScore [4]: 0

B19: 5T4 9-mer peptide 53 VLPAGAFAR (peptide)
peptide: VLPAGAFAR
- iScore [1]: 0.027
- iScore [2]: 0.081
- iScore [3]: 0
- iScore [4]: 0

B20: 5T4 9-mer peptide 92 IVPPEDERQ (peptide)
peptide: IVPPEDERQ
- iScore [1]: 0
- iScore [2]: 0
- iScore [3]: 0
- iScore [4]: 0

B21: 5T4 9-mer peptide 85 VSAPSPLVE (peptide)
peptide: VSAPSPLVE
- iScore [1]: 0
- iScore [2]: 0
- iScore [3]: 0
- iScore [4]: 0

B22: 5T4 9-mer peptide 74 LDLSHNPLA (peptide)
peptide: LDLSHNPLA
- iScore [1]: 0
- iScore [2]: 0.226
- iScore [3]: 0
- iScore [4]: 0

B23: 5T4 9-mer peptide 60 ELAALNLSG (peptide)
peptide: ELAALNLSG
- iScore [1]: 0
- iScore [2]: 0.075
- iScore [3]: 0
- iScore [4]: 0

B24: 5T4 9-mer peptide 78 ADLSPFAFS (peptide)
peptide: ADLSPFAFS
- iScore [1]: 0
- iScore [2]: 0.116
- iScore [3]: 0
- iScore [4]: 0

B25: 5T4 9-mer peptide 88 LVELILNHI (peptide)
peptide: LVELILNHI
- iScore [1]: 0
- iScore [2]: 0.109
- iScore [3]: 0
- iScore [4]: 0

B26: 5T4 9-mer peptide 66 DEVRAGAFE (peptide)
peptide: DEVRAGAFE
- iScore [1]: 0
- iScore [2]: 0
- iScore [3]: 0
- iScore [4]: 0

B27: 5T4 9-mer peptide 87 SPLVELILN (peptide)
peptide: SPLVELILN
- iScore [1]: 0
- iScore [2]: 0.094
- iScore [3]: 0
- iScore [4]: 0

B28: 5T4 9-mer peptide 91 NHIVPPEDE (peptide)
peptide: NHIVPPEDE
- iScore [1]: 0
- iScore [2]: 0
- iScore [3]: 0
- iScore [4]: 0

B29: 5T4 9-mer peptide 55 GAFARRPPL (peptide)
peptide: GAFARRPPL
- iScore [1]: 0
- iScore [2]: 0.222
- iScore [3]: 0.359
- iScore [4]: 0

B30: 5T4 9-mer peptide 70 EHLPSLRQL (peptide)
peptide: EHLPSLRQL
- iScore [1]: 0
- iScore [2]: 0.046
- iScore [3]: 0
- iScore [4]: 0

B31: 5T4 9-mer peptide 75 LSHNPLADL (peptide)
peptide: LSHNPLADL
- iScore [1]: 0
- iScore [2]: 0.095
- iScore [3]: 0
- iScore [4]: 0

B32: 5T4 9-mer peptide 52 LAVLPAGAF (peptide)
peptide: LAVLPAGAF
- iScore [1]: 0
- iScore [2]: 0.074
- iScore [3]: 0.049
- iScore [4]: 0

B33: 5T4 9-mer peptide 79 LSPFAFSGS (peptide)
peptide: LSPFAFSGS
- iScore [1]: 0
- iScore [2]: 0.064
- iScore [3]: 0
- iScore [4]: 0

B34: 5T4 9-mer peptide 86 APSPLVELI (peptide)
peptide: APSPLVELI
- iScore [1]: 0
- iScore [2]: 0
- iScore [3]: 0.101
- iScore [4]: 0

B35: 5T4 9-mer peptide 90 ILNHIVPPE (peptide)
peptide: ILNHIVPPE
- iScore [1]: 0
- iScore [2]: 0.426
- iScore [3]: 0
- iScore [4]: 0

B36: 5T4 9-mer peptide 48 NLFLTGNQL (peptide)
peptide: NLFLTGNQL
- iScore [1]: 0
- iScore [2]: 0.107
- iScore [3]: 0
- iScore [4]: 0

B37: 5T4 9-mer peptide 62 LNLSGSRLD (peptide)
peptide: LNLSGSRLD
- iScore [1]: 0
- iScore [2]: 0
- iScore [3]: 0
- iScore [4]: 0

B38: 5T4 9-mer peptide 68 AGAFEHLPS (peptide)
peptide: AGAFEHLPS
- iScore [1]: 0
- iScore [2]: 0
- iScore [3]: 0
- iScore [4]: 0

B39: 5T4 9-mer peptide 73 RQLDLSHNP (peptide)
peptide: RQLDLSHNP
- iScore [1]: 0
- iScore [2]: 0
- iScore [3]: 0
- iScore [4]: 0

B40: 5T4 9-mer peptide 67 VRAGAFEHL (peptide)
peptide: VRAGAFEHL
- iScore [1]: 0
- iScore [2]: 0
- iScore [3]: 0.085
- iScore [4]: 0

B41: 5T4 9-mer peptide 57 RRPPLAELA (peptide)
peptide: RRPPLAELA
- iScore [1]: 0
- iScore [2]: 0
- iScore [3]: 0
- iScore [4]: 0

B42: 5T4 9-mer peptide 50 TGNQLAVLP (peptide)
peptide: TGNQLAVLP
- iScore [1]: 0
- iScore [2]: 0.044
- iScore [3]: 0
- iScore [4]: 0

B43: 5T4 9-mer peptide 58 PPLAELAAL (peptide)
peptide: PPLAELAAL
- iScore [1]: 0
- iScore [2]: 0.075
- iScore [3]: 0.145
- iScore [4]: 0

B44: 5T4 9-mer peptide 89 ELILNHIVP (peptide)
peptide: ELILNHIVP
- iScore [1]: 0
- iScore [2]: 0.067
- iScore [3]: 0
- iScore [4]: 0

B45: 5T4 9-mer peptide 59 LAELAALNL (peptide)
peptide: LAELAALNL
- iScore [1]: 0
- iScore [2]: 0.72
- iScore [3]: 0.074
- iScore [4]: 0

B46: 5T4 9-mer peptide 77 PLADLSPFA (peptide)
peptide: PLADLSPFA
- iScore [1]: 0
- iScore [2]: 0.556
- iScore [3]: 0
- iScore [4]: 0

Source: patent publication US20090280138A1 (OXFORD BIOMEDICA UK, published 2009)
